Assay results taken from patent US20140120109A1 (Regeneron, published 2014).

T1: human TL1A, soluble, CHO-expressed, residues 72-251 of SEQ ID NO:244 with N-terminal His6-tag (human, UniProt O95150 72-251)
T1 construct: also called hTL1A; hTL1A (CHO)
T1 sequence: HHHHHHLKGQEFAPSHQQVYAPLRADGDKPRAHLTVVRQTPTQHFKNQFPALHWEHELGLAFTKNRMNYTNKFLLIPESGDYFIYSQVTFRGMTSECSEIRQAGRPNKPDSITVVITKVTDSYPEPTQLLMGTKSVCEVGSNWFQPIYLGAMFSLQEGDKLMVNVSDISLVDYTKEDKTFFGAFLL

T2: cynomolgus monkey TL1A, soluble, CHO-expressed, residues 72-251 of SEQ ID NO:248 with N-terminal His6-tag (cynomolgus monkey (Macaca fascicularis), UniProt O95150 72-251 (human entry))
T2 construct: also called MfTL1A; MfTL1A (CHO)
T2 chain: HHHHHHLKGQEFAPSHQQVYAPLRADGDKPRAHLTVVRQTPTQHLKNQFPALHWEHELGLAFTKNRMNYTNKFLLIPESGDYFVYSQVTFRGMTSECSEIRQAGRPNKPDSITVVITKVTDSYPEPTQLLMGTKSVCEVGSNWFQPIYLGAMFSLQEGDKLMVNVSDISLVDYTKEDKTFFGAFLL

T3: rat TL1A, soluble, CHO-expressed, residues 76-252 of SEQ ID NO:258 with N-terminal His6-tag (rat, UniProt Q8K3Y7 76-252)
T3 construct: also called rTL1A; rTL1A (CHO)
T3 sequence: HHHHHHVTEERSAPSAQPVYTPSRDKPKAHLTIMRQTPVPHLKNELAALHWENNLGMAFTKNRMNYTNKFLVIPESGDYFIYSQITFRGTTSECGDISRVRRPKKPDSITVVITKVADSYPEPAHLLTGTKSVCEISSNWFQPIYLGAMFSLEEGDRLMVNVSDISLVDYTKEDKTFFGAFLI

T4: full-length Fhm, human TL1A(Q167R), expressed on HEK293 cells (human, UniProt O95150 1-251)
T4 sequence: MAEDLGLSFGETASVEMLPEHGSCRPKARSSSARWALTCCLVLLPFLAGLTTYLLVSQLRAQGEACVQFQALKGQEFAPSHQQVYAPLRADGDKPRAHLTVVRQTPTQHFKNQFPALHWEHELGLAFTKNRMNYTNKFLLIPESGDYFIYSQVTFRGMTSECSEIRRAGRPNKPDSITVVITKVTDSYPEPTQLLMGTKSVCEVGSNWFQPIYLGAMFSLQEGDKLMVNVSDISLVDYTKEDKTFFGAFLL

T5: full length human TL1A expressed on HEK293 cells (human, UniProt O95150 1-251)
T5 sequence: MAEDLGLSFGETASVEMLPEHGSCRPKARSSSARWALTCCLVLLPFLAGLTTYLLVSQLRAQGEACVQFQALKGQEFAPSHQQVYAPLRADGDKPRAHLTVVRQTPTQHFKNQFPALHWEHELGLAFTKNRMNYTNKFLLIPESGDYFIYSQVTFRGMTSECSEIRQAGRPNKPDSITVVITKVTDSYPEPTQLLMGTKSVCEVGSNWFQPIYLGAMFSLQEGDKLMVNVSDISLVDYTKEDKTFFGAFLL

T6: full-length cynomolgus monkey TL1A expressed on HEK293 cells (cynomolgus monkey (Macaca fascicularis), UniProt O95150 1-251 (human entry))
T6 chain: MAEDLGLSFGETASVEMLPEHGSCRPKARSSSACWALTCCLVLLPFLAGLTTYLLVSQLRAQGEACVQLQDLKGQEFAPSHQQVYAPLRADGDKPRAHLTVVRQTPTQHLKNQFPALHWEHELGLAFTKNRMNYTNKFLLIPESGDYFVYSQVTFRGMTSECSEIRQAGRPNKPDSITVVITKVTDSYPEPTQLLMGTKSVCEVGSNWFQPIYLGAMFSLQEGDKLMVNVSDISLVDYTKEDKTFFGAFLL

T7: cynomolgus monkey TL1A, soluble, E. coli-expressed, residues 72-251 of SEQ ID NO:248 (cynomolgus monkey (Macaca fascicularis), UniProt O95150 72-251 (human entry))
T7 chain: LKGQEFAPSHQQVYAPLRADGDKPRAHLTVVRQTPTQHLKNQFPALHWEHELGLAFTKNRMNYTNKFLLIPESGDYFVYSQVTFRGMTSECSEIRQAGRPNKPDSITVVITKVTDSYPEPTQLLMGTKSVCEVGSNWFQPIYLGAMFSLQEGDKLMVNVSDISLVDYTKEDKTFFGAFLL

T8: human TL1A, soluble, E. coli-expressed, residues 72-251 of SEQ ID NO:244 (human, UniProt O95150 72-251)
T8 sequence: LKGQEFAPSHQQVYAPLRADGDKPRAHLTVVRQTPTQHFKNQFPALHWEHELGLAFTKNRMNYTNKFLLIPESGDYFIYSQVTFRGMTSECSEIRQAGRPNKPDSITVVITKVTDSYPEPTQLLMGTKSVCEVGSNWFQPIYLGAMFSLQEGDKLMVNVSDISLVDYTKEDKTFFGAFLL


Assays:
[1] = biological target: T1, human TL1A, soluble, CHO-expressed, …; test: SPR 25C, mAb captured
In short: (§1)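 Biacore T100 SPR with captured mAb and soluble TL1A/Fhm analyte; ka and kd fitted to a 1:1 model assuming monomeric TL1A. KD = kd/ka; t1/2 (min) = ln2/(60·kd).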

[2] = biological target: T2, cynomolgus monkey TL1A, soluble, …; test: SPR 25C, mAb captured
In short: as §1

[3] = biological target: T3, rat TL1A, soluble, CHO-expressed, …; test: SPR 25C, mAb captured
In short: as §1

[4] = biological target: T4, full-length Fhm, human TL1A(Q167R), …; test: cell-based or functional assay
[5] = biological target: T5, full length human TL1A expressed on …; test: cell-based or functional assay
[6] = biological target: T6, full-length cynomolgus monkey TL1A …; test: cell-based or functional assay
[7] = biological target: T7, cynomolgus monkey TL1A, soluble, E. …; test: cell-based or functional assay
[8] = biological target: T1, human TL1A, soluble, CHO-expressed, …; test: cell-based or functional assay
[9] = biological target: T8, human TL1A, soluble, E. coli-expressed, …; test: cell-based or functional assay
[10] = biological target: T2, cynomolgus monkey TL1A, soluble, …; test: cell-based or functional assay

Kd [1] | t1/2 [1] | Kd [2] | t1/2 [2] | Kd [3] | t1/2 [3] | IC50, reporter + 10,000 TL1A cells [4] | IC50, reporter + 10,000 TL1A cells [5] | IC50, reporter + 10,000 TL1A cells [6] | IC50, NFkB-luciferase reporter [7] | IC50, NFkB-luciferase reporter [8] | IC50, NFkB-luciferase reporter [9] | IC50, NFkB-luciferase reporter [10] | binding result [3] | Binder
0.291 nM | 0.85 h | 0.264 nM | 0.817 h | 0.321 nM | 0.717 h | 1.23 nM | 0.56 nM | 2.23 nM | 0.02 nM | 0.07 nM | 0.03 nM | 0.03 nM | – | H4H1804N (antibody, human IgG4 S228P, V domains shown, human IgG4(S108P) form of H2M1804N) VH: QVQLHQWGAGLLKPSETLSLTCAVSGVSFSDYHWAWIRQSPGKGLEWIGDINHRGRTNYNPSLKSRVTISLDTSGNPFSLKLTSVTAADTAVYYCARDFPNWVFDSWGQGILVTVSS VL: EIVLSQSPGTLSLSPGERATLSCRASQSVSSSFLAWYQQYPGQAPRLLIYGASRRATGIPDRFRGSGSGTDFTLTISRLEPEDFAVYYCQQYGSSPLTFGGGTKVENK
– | – | – | – | – | – | 29.5 nM | 12.8 nM | 107 nM | 32.5 nM | 0.9 nM | 2.17 nM | 155 nM | no binding (tested: up to 100 nM) | H4H1750P (antibody, human IgG4 S228P, V domains shown) VH: QVQLVESGGGVVQPGRSLRLSCVASGFTFSNYGMHWVRQAPGKGLEWVAVISYDGNNDLYSDSVKGRFTISRDNAKNALSLQMTSLRAEDTAVYYCARDSTMTPYYYHGIDVWGQGTTVTVSA VL: DIQMTQSPSSLSASVGDRVTITCRASQDIRNDLGWYQQKPGKAPKRLIYAASSLQSGVPSRFSGSGSGTDFTLTISSLQPEDFATYYCLQHNSYPPTFGQGTKVEIK
0.156 nM | 3.28 h | 0.213 nM | 2.32 h | – | – | 138 nM | 1.99 nM | 11.7 nM | 0.05 nM | 0.36 nM | 0.21 nM | 0.12 nM | no binding (tested: up to 100 nM) | H4H1752P (antibody, human IgG4 S228P, V domains shown) VH: EVQLVESGGGLVQPGGSLRLSCSASGFTFSKYVMTWVRQAPGKGLEWVSAIGPTGRTTEYADSVQGRFTISRDNSMNTVFLHLNSLTAEDTAEYYCAKMFDWNYDVYFDSWGQGTLVTVSS VL: DIQMTQSPSILSASVGDRVTITCRTSQSISNWLAWYQQKPGKAPNLLIYKASSLESGVPSRFSGSGSGTEFTLTISSLQPDDFATYYCQQYYRYWTFGQGTKVEIK

Second part, the binder before the results:

Binder | Kd [1] | t1/2 [1] | Kd [2] | t1/2 [2] | Kd [3] | t1/2 [3] | IC50, reporter + 10,000 TL1A cells [4] | IC50, reporter + 10,000 TL1A cells [5] | IC50, reporter + 10,000 TL1A cells [6] | IC50, NFkB-luciferase reporter [7] | IC50, NFkB-luciferase reporter [8] | IC50, NFkB-luciferase reporter [9] | IC50, NFkB-luciferase reporter [10] | binding result [3]
H4H1681N (antibody, human IgG4 S228P, V domains shown) VH: EVQLLESGGGLVQPGKSLRLSCAVSGFTFSTYGMNWVRQAPGKGLEWVSSISGTGRTTYHADSVQGRFTVSRDNSKNILYLQMNSLRADDTAVYFCTKERGDYYYGVFDYWGQGTLVTVSS VL: DIQMTQSPSTLSASVGDRVTITCRASQTISSWLAWYQQTPEKAPKLLIYAASNLQSGVPSRFSGSGSGTEFTLTISSLQPDDFATYYCQQYHRSWTFGQGTKVEIT | 0.263 nM | 0.6 h | 0.404 nM | 0.417 h | – | – | – | 0.66 nM | 3.07 nM | 0.02 nM | 0.17 nM | 0.02 nM | 0.03 nM | no binding (tested: up to 100 nM)
H4H1817N (antibody, human IgG4 S228P, V domains shown, human IgG4(S108P) form of H2M1817N) VH: QVQLQQWGAGLLKPSETLSLTCAVSGGSFSDYFWTWIRQPPGKGLEWIGEISHSGRTNYNPSLKSRVTISVDTSMSQFSLKMTSVTAADSAVYYCARDYPNWVFDYWGQGTLVTVSS VL: EIELTQSPGTLSLSPGEGATLSCRASQSVFNSYLAWYQQKPGQAPRLLIYGASRRATGIPDRFSGSGSGTDFTLTISRLEPGDFAVYFCQQYGNSPLTFGGGTKVEIK | 0.321 nM | 1.72 h | 0.356 nM | 1.53 h | 2.5 nM | 0.417 h | 0.62 nM | 1.11 nM | 5.04 nM | 0.02 nM | 0.11 nM | 0.04 nM | 0.04 nM | –
H4H1704N (antibody, human IgG4 S228P, V domains shown, human IgG4(S108P) form of H2M1704N) VH: EVQLVESGGGLVQPGGSLRLSCAVSGFTFSSYWMSWVRQAPGKGLEWVANIKEDGSEKNYVDSVKGRFTLSSDNAKNSLYLQMNSLRAEDTAVYYCAREDYDSYYKYGMDVWGQGTAVIVSS VL: not shown | 0.0392 nM | 7.55 h | 0.0599 nM | 4.6 h | 0.404 nM | 0.417 h | 1.58 nM | 1.11 nM | 3.76 nM | 0.03 nM | 0.13 nM | 0.06 nM | 0.01 nM | –
H4H1805N (antibody, human IgG4 S228P, V domains shown, human IgG4(S108P) form of H2M1805N) VH: QVQLQQWGAGLLKPSETLSLTCAVYGGSFTGFYWSWIRQPPGKGLEWIGEINHRGNTNYNPSLKSRVTMSVDTSKNQFSLNMISVTAADTAMYFCASPFYDFWSGSDYWGQGTLVTVSS VL: DIMLTQTPLTSPVTLGQPASISCKSSQSLVHSDGNTYLSWLQQRPGQPPRLLFYKISNRFSGVPDRFSGSGAGTDFTLKISRVEAEDVGVYYCMQATQFPLTFGGGTKVEIK | 0.365 nM | 1.22 h | 0.342 nM | 1.23 h | – | – | 54.1 nM | 0.82 nM | 1.93 nM | 0.02 nM | 0.1 nM | 0.04 nM | 0.03 nM | no binding (tested: up to 100 nM)
